The target in test [1] is T1, yeast carboxypeptidase Y (CPD-Y), wild type (SEQ ID NO:32) (Saccharomyces cerevisiae, UniProt P00729).
T1 construct: purchased Carlbiotech, Copenhagen, Denmark
T1 sequence (P00729 112-532): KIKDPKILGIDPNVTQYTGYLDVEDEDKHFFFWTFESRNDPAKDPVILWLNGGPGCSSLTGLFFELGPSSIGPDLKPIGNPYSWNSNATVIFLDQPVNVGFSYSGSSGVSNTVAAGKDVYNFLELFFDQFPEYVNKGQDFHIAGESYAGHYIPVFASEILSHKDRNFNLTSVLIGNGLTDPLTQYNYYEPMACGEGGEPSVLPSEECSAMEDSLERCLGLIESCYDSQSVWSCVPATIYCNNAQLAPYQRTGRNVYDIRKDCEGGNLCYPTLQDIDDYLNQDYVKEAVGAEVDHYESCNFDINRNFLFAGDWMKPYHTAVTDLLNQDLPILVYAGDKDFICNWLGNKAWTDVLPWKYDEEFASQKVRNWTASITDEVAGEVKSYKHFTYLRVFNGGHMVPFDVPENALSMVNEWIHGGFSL
Briefly: Aminolysis of ester/peptide substrates; KN(app) of nucleophile. In kind it is biochemical. The following applies: for KN(app): Table III (unit as in Tables I, II), ester substrate; for KN,app (H-Gly-NH2 as nucleophile): substance of the line is the substrate (leaving group phenylalanine or L-β-phenyllactic acid), enzyme not named, taken as CPD-Y. As for the experimental part:
(§1) Aminolysis reactions were carried out in the following way. The nucleophile was dissolved in 50 mM Hepes, 5 mM EDTA and pH was adjusted to 7.5. Five (5) μl of substrate (8 mM FA-Ala-OBzl in methanol) was added to 190 μl nucleophile solution followed by 5 μl enzyme, resulting in a substrate concentration of 0.2 mM. For reactions carried out at pH 9.5, Hepes was replaced with Ches. During the reaction, 20 μl aliquots were removed from the reaction mixture and added to 50 μl 1% trifluoroacetic acid to quench the reaction. The reactant composition was determined by HPLC using a Waters HPLC equipped with a C-18 Waters Novapac 4μ reverse phase column and various gradients of acetonitrile in 0.1% trifluoroacetic acid. The separation was monitored at 302 nm allowing the direct quantification of the products from the integrated peak areas. The composition of the reaction mixture was determined at least twice during the reaction, the first time when 20-50% (preferably 35%) of the ester substrate had been consumed in the reaction and the second time when 50-90% (preferably 80%) of the substrate had been consumed. The products were collected and identified by amino acid analysis after acid hydrolysis using a Pharmacia Alpha Plus analyzer.
(§2) Further identification was obtained by co-chromatography of authentic standard compounds. The fraction of aminolysis (fa) was expressed as the ratio between the formed aminolysis product and the sum of all products being formed, i.e., unconsumed substrate was disregarded in the calculations. The KN(app), representing the nucleophile concentration at which fa is half the maximum value (a measure for the dissociation constant of the nucleophile), and famax (the highest possible fa obtained at saturation of the enzyme with nucleophile) were determined by fitting the values of fa obtained at a minimum of seven concentrations of nucleophile to a saturation. The value of fa obtained at the highest possible nucleophile concentration is designated fasat.
(§3) Aminolysis reactions were carried out in the following way. The nucleophile was dissolved in 50 mM HEPES, 5 mM EDTA and pH was adjusted to 7.5, 5 μl substrate (8 mM FA-Ala-OBzl or FA-Ala-Xaa-OH in methanol) was added to 190 μl nucleophile solution followed by 5 μl enzyme diluted in buffer to the appropriate concentration, resulting in a substrate concentration of 0.2 mM. During the reaction, 20 μl aliquots were removed from the reaction mixture and added to 50 μl 1% trifluoroacetic acid to quench the reaction. The reactant composition was determined by HPLC using a Waters HPLC equipped with a C-18 Waters Novapac 4μ reverse phase column and various gradients of acetonitrile in 0.1% trifluoroacetic acid. The separation was monitored at 302 nm allowing the direct quantification of the products from the integrated peak areas. The products were collected and identified by amino acid analysis after acid hydrolysis (Pharmacia Alpha Plus analyzer) and by co-chromatography of authentic standards. The fraction of aminolysis (fa) was expressed as the ratio between the formed aminolysis product and the sum of all products being formed, i.e. unconsumed substrate was disregarded in the calculations. The KN,app (a measure for the dissociation constant of the nucleophile) and famax (the highest possible fa obtained at saturation with nucleophile were determined by fitting the obtained fa values to the equation fa=famax /(1+KN,app /N).

The target in test [2] is T2, carboxypeptidase Y (CPD-Y) variant N51Q (Asn51 replaced with glutamine) (Saccharomyces cerevisiae, UniProt P00729, N162Q).
T2 construct: made in house; host or cells: S. cerevisiae W2579 (secreted)
T2 sequence (P00729 112-532 N162Q): T1 sequence (P00729 112-532) with N51Q
Briefly: Aminolysis; KN(app) of nucleophile. In kind it is biochemical, yeast. The following applies: Table V; amino acid nucleophile, FA-Ala-OBzl as substrate, pH 7.5. As for the experimental part: as §1, §2, §3

Numbering of substitutions follows the chain as printed. Peptide text beside a SMILES is read from it. * marks the point of attachment. Bz = O=C(c1ccccc1)*

As to `C[C@H](N)C(=O)O` [H--Ala--OH, H-Ala-OH], the “KN(app)” value in [1] (amino acid nucleophile) is on record as 83 ± 7 mM. The “Kn,app” value was 83 ± 7 mM in [1] (Table V, amino acid nucleophile, FA-Ala-OBzl as substrate, pH 7.5) and 250 ± 15 mM in [2].
`NC(=O)CC[C@H](N)C(=O)O` [H--Gln--OH, H-Gln-OH]: the “KN(app)” value in test [1] (amino acid nucleophile) turned out to be 150 ± 8 mM.
Same read-out and setting: the value for `NCC(=O)O` [H--Gly--OH, H-Gly-OH] was 1500 ± 50 mM.
The same measure, in the same setting: the value for `N[C@@H](Cc1c[nH]cn1)C(=O)O` [H--His--OH, H-His-OH] was 87 ± 9 mM; that for `NCCCC[C@H](N)C(=O)O` [H--Lys--OH, H-Lys-OH] was 190 ± 30 mM.
Take `N[C@@H](Cc1ccccc1)C(=O)O` [H--Phe--OH, H-Phe-OH]: in test [1] (amino acid nucleophile), the “KN(app)” value worked out at 9.5 ± 1 mM. In [2], the “Kn,app” value is 29 ± 1 mM.
For the compound `N[C@@H](CO)C(=O)O` [H--Ser--OH, H-Ser-OH], the “KN(app)” value in test [1] (amino acid nucleophile) was found to be 310 ± 20 mM.
For `O=C(CNC(=O)c1ccccc1)N[C@@H](Cc1ccccc1)C(=O)O` [Hippuryl-L-Phe-OH] (Bz-Gly-Phe-OH), the “KN,app (H-Gly-NH2 as nucleophile)” value in test [1] amounted to 0.63±0.06.
For the compound `O=C(CNC(=O)c1ccccc1)O[C@@H](Cc1ccccc1)C(=O)O` [Hippuryl-L-β-Phenyllactic acid], in test [1], the “KN,app (H-Gly-NH2 as nucleophile)” value stood at 0.47±0.05.
In the case of “carboxypeptidase Y mutant 178Ala/215Ser/216Arg (enzyme)”, the estimated CPD-Y activity relative to wild type transformants (fold of wild type) is 1.4 with CBZ-Glu-Leu-OH; 1 in the test with CBZ-His-Leu-OH; 4 with CBZ-Lys-Leu-OH; 1.3 with CBZ-Ser-Leu-OH; 1.1 with CBZ-Gly-Leu-OH; 1.1 with CBZ-Trp-Leu-OH. In addition, the estimated CPD-Y activity relative to wild type transformants (fold of wild type) in the test with CBZ-Pro-Leu-OH was 0.6; in the test with CBZ-Phe-Leu-OH, 1.2.
For the compound “carboxypeptidase Y mutant 178Asn/215Ala/216Gly (enzyme)”, the estimated CPD-Y activity relative to wild type transformants (fold of wild type) with CBZ-Glu-Leu-OH was 2; with CBZ-His-Leu-OH, 1.3; in the test with CBZ-Lys-Leu-OH, 4.4; in the test with CBZ-Ser-Leu-OH, 0.7; in the test with CBZ-Gly-Leu-OH, 0.7; with CBZ-Trp-Leu-OH, 2. Besides, the figures for the estimated CPD-Y activity relative to wild type transformants (fold of wild type) with CBZ-Pro-Leu-OH and with CBZ-Phe-Leu-OH were 0.9 and 2.8, respectively.
On to “carboxypeptidase Y mutant 178Cys (enzyme)”, for which the estimated CPD-Y activity relative to wild type transformants (fold of wild type) was 1.1 in the test with CBZ-Glu-Leu-OH; 1.7 with CBZ-His-Leu-OH; 6.9 in the test with CBZ-Lys-Leu-OH; 0.5 in the test with CBZ-Ser-Leu-OH; 0.9 in the test with CBZ-Gly-Leu-OH; 1 with CBZ-Trp-Leu-OH. Further, in the test with CBZ-Pro-Leu-OH, the estimated CPD-Y activity relative to wild type transformants (fold of wild type) is 0.3.
Take “carboxypeptidase Y mutant 178Cys/215Thr/216Trp (enzyme)”: the estimated CPD-Y activity relative to wild type transformants (fold of wild type) with CBZ-Glu-Leu-OH is 1.1; with CBZ-His-Leu-OH, 1.1; with CBZ-Lys-Leu-OH, 5.3; with CBZ-Ser-Leu-OH it was 0.4; with CBZ-Gly-Leu-OH, 0.8; with CBZ-Trp-Leu-OH it was 0.9. For the same compound, the estimated CPD-Y activity relative to wild type transformants (fold of wild type) is 1.6 with CBZ-Pro-Leu-OH and 1 with CBZ-Phe-Leu-OH.
For the compound “carboxypeptidase Y mutant 178Gly/340Ile/341Cys (enzyme)”, the estimated CPD-Y activity relative to wild type transformants (fold of wild type) with CBZ-Glu-Leu-OH is 0.8; with CBZ-His-Leu-OH it was 0.8; with CBZ-Lys-Leu-OH it was 4.6; with CBZ-Ser-Leu-OH, 0.3; in the test with CBZ-Gly-Leu-OH, 0.3; with CBZ-Trp-Leu-OH, 0.5. Besides, the estimated CPD-Y activity relative to wild type transformants (fold of wild type) with CBZ-Pro-Leu-OH is 0.5; in the test with CBZ-Phe-Leu-OH, 0.8.
Regarding “carboxypeptidase Y mutant 178His/215Pro/216Thr (enzyme)”, the estimated CPD-Y activity relative to wild type transformants (fold of wild type) with CBZ-Glu-Leu-OH was 1; in the test with CBZ-His-Leu-OH, 1.1; with CBZ-Lys-Leu-OH, 3.6; with CBZ-Ser-Leu-OH it was 1.1; with CBZ-Gly-Leu-OH it was 0.8; with CBZ-Trp-Leu-OH it was 1.5. Further, the values for the estimated CPD-Y activity relative to wild type transformants (fold of wild type) with CBZ-Pro-Leu-OH and with CBZ-Phe-Leu-OH were 1.2 and 0.9, respectively.
Regarding “carboxypeptidase Y mutant 178His/215Thr/216Phe (enzyme)”, the estimated CPD-Y activity relative to wild type transformants (fold of wild type) with CBZ-Glu-Leu-OH was 1.2; with CBZ-His-Leu-OH, 1.1; with CBZ-Lys-Leu-OH it was 3.1; with CBZ-Ser-Leu-OH, 1; with CBZ-Gly-Leu-OH, 0.8; with CBZ-Trp-Leu-OH it was 1.7. The estimated CPD-Y activity relative to wild type transformants (fold of wild type) in the test with CBZ-Pro-Leu-OH is 1.2; with CBZ-Phe-Leu-OH, 0.9.

The values above are taken from patent publication US5945329A, “Customized proteases” (Carlsberg A/S, priority 1997, dated 1999).
